Assay results from patent US20190248889A1 (Genentech, published 2019).

Biological target: T1, human LgR5 (human, UniProt O75473 22-907)
T1 construct: This one molecule is used for transfected 293 cells and for endogenous LgR5 in human cells and tissues; also called leucine-rich repeat-containing G protein-coupled receptor 5
T1 sequence: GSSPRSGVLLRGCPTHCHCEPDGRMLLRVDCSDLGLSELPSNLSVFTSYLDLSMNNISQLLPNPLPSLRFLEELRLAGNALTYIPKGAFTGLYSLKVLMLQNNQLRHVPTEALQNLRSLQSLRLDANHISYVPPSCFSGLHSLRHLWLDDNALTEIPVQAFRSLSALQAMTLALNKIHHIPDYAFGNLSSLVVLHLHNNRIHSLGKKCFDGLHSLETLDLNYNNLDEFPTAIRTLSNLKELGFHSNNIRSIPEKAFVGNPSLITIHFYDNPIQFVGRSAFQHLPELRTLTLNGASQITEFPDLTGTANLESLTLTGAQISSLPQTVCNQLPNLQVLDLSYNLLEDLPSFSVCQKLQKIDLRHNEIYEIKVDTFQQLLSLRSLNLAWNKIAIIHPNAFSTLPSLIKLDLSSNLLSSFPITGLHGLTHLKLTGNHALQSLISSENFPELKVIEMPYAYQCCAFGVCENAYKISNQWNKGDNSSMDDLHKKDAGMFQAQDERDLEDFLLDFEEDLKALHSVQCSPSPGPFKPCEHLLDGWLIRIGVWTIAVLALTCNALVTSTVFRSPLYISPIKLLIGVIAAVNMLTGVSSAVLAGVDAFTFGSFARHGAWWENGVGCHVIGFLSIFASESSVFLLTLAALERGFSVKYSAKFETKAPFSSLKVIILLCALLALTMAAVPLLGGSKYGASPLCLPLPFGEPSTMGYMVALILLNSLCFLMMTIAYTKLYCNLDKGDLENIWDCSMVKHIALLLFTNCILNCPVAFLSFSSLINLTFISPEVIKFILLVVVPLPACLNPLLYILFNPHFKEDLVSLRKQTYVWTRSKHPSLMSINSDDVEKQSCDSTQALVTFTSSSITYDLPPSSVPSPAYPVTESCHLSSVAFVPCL
Experiment: IHC on SW403 colon cancer cell line
Experimental: Staining with antibody LGR5.26-1 was compared to staining with antibody LGR5.1-12 in CXF233 (human colon tumor model; Oncotest) xenograft tumors and in various colon cancer cell lines. Immunohistochemistry (IHC) for Lgr5 was performed on a Dako Universal Autostainer (Dako, Carpinteria, Calif.). Briefly, formalin-fixed, paraffin-embedded tumor tissue were deparaffinized and antigen unmasking was performed in a PT Module (Thermo Scientific, Kalamazoo, Mich.) with Target Retrieval pH 6 (Dako) at 99° C. for 20 minutes. Endogenous peroxidase was inhibited with treatment of 3% H202 in PBS for 4 minutes and endogenous biotin was blocked using the Avidin/Biotin blocking kit (Vector Labs, Burlingame, Calif.). Endogenous IgGs were blocked using 10% donkey serum in 3% BSA/PBS and primary antibody to Lgr5 (LGR5.1-12 or 26-1) was incubated at 4 μg/ml for 60 minutes at room temperature. […] Antibody binding was detected with Metal enhanced DAB (Pierce Rockford, Ill.) for 5 minutes at room temperature and sections were counterstained with Mayer's Hematoxylin (Rowley Biochemical, Danvers, Mass.).
Each cell line was also characterized by lgr5 gene expression using RNAseq data into the following levels of expression: none, very low, low, moderate, and high. In addition, LgR5 levels were determined in the cell lines by IHC, substantially as described above.

| Binder | binding result |
| --- | --- |
| antibody LGR5.1-12 (antibody, V domains shown, also called αLgR5.1-12; antibody 1-12) VH: QSLEESGGGLVQPEGSLTLTCTASGFSFSRTYWICWDRQAPGKGLEWIACIYAGGSDNTYYASWAKGRFTISKTSSTTVTLQVTSLTAADTATYFCARYYAGSSEYFNLWGPGTLVTVSS VL: AYDMTQTPASVEVAVGGTVTIKCQASQSIGSNLAWYQQKPGQPPKLLIYGASNLASGVSSRFKGSGSGTEFTLTISDLECADAATYYCQTTYGSSSDGFFWTFGGGTEVVVKG | binds |
| antibody LGR5.26-1 (antibody, V domains shown, also called αLgR5.26-1; antibody 26-1) VH: QSLEESGGDLVKPGGTLTLTCTASGIDFSYYSYMCWVRQAPGKGLEWIACIYAGTSGSTYYASWAKGRFTISKTSSTTVTLQMISLTAADTATYFCARSYYTFGVNGYAWDLWGPGTLVTVSS VL: AFELTQTPSSVEAAVGGTVTIKCQASQSISVGLAWYQQKPGQPPKLLIYKASTLASGVPSRFKGSRSGTEFTLTISDLECADAATYYCQSYYDSSTTANVFGGGTEVVVKG | binds |
